Results as given in the supplement of paper PMC7877785.
± gives the uncertainty stated by the source.

Assay: self-splicing fitness, log relative to wild type (ln ratio); higher = more splicing; Tetrahymena group I intron in knt gene, E. coli kanamycin selection, DiMSum; sequences stand for … in CUCUCU…GGAGGGAAAAGUUAUCAGGCAUGCACCUGGUAGCUAGUCUUUAAACCAAUAGAUUGCAUCGGUUUAAAAGGCAAGACCGUCAAAUUGCGGGAAAGGGGUCAACAGCCGUUCAGUACCAAGUCUCAGGGGAAACUUUGAGAUGGCCUUGCAAAGGGUAUGGUAAUAAGCUGACGGACAUGGUCCUAACCACGCAGCCAAGUCCUAAGUCAACAGAUCUUCUGUUGAUAUGGAUGCAGUUCACAGACUAAAUGUCGGUCGGGGAAGAUGUAUUCUUCUCAUAAGAUAUAGUCGGACCUCUCCUUAAUGGGAGCUAGCGGAUGAAGUGAUGCAACACUGGAGCCGCUGGGAACUAAUUUGUAUGCGAAAGUAUAUUGAUUAGUUUUGGAGUACUCGUGGUCG
How it was run: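 A randomised library covering all eight P1ex-region intron nucleotides was built with the intron in the knt kanamycin-resistance gene on pET-22b(+) and held in E. coli BL21(DE3). Cells were grown overnight at 37°C or 30°C on LB agar, with or without 25 μg/mL kanamycin, plus 100 μg/mL carbenicillin, 50 μM IPTG and 0.2% rhamnose, and pooled colonies were amplicon-sequenced on an Illumina HiSeq 2500. DiMSum fitness is the error-weighted combination of wild-type-normalised replicate fold changes, kanamycin versus none.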

Sequence | self-splicing fitness (ln) (30 °C) | self-splicing fitness (ln) (37 °C)
UUCGAGCAAUAUUACGCGUG | -1.06 ± 0.13 | -0.676 ± 0.14
UUCGAGCAAUAUUACGGAGU | – | -2.26 ± 0.32
UUCGAGCAAUAUUACGGAUC | – | -1.85 ± 0.48
UUCGAGCAAUAUUACGGAUG | -3.22 ± 0.38 | -2.86 ± 0.32
UUCGAGCAAUAUUACGGCAU | -2.95 ± 0.27 | -1.44 ± 0.19
UUCGAGCAAUAUUACGGCGU | -1.44 ± 0.16 | -0.438 ± 0.19
UUCGAGCAAUAUUACGGGCA | -2.27 ± 0.17 | -0.711 ± 0.15
UUCGAGCAAUAUUACGGUGG | -3.36 ± 0.27 | -1.07 ± 0.19
UUCGAGCAAUAUUACGGUUU | -4.44 ± 0.36 | -1.93 ± 0.22
UUCGAGCAAUAUUACGUCGG | -2.96 ± 0.28 | -1.78 ± 0.29
UUCGAGCAAUAUUACGUCUC | -4.02 ± 0.47 | -2 ± 0.16
UUCGAGCAAUAUUACGUGAC | -3.65 ± 0.24 | -3.28 ± 0.27
UUCGAGCAAUAUUACGUUCG | -3.75 ± 0.24 | -2.32 ± 0.27
UUCUAGCAAUAUUACGAAGA | -1.99 ± 0.19 | -1.61 ± 0.21
UUCUAGCAAUAUUACGAAGU | – | -0.603 ± 0.25
UUCUAGCAAUAUUACGAAUC | – | -1.98 ± 0.25
UUCUAGCAAUAUUACGAAUU | -2.96 ± 0.23 | -1.58 ± 0.18
UUCUAGCAAUAUUACGACAU | -2.324 ± 0.019 | -1.57 ± 0.034
UUCUAGCAAUAUUACGCAGC | – | -0.431 ± 0.2
UUCUAGCAAUAUUACGCCAA | -1.75 ± 0.21 | -0.272 ± 0.2
UUCUAGCAAUAUUACGCCCG | -1.09 ± 0.27 | -0.74 ± 0.4
UUCUAGCAAUAUUACGCGAA | -2.25 ± 0.21 | -1.3 ± 0.2
UUCUAGCAAUAUUACGCUAA | -2.53 ± 0.21 | -0.91 ± 0.14

Sequence | self-splicing fitness (ln) (30 °C) | self-splicing fitness (ln) (37 °C)
UUCUAGCAAUAUUACGCUAC | -2.37 ± 0.38 | –
UUCUAGCAAUAUUACGCUGU | -2.17 ± 0.17 | -1.63 ± 0.2
UUCUAGCAAUAUUACGGAUG | -1.05 ± 0.098 | -0.888 ± 0.13
UUCUAGCAAUAUUACGGCUU | -3.3 ± 0.39 | -2.22 ± 0.28
UUCUAGCAAUAUUACGGGUG | -0.114 ± 0.078 | 0.281 ± 0.11
UUCUAGCAAUAUUACGGUCC | – | -2.46 ± 0.39
UUCUAGCAAUAUUACGGUGG | -4.34 ± 0.39 | -2.5 ± 0.26
UUCUAGCAAUAUUACGGUUG | -1.64 ± 0.11 | -1.78 ± 0.17
UUCUAGCAAUAUUACGUACA | -1.39 ± 0.19 | -0.376 ± 0.22
UUCUAGCAAUAUUACGUACG | -1.82 ± 0.14 | -0.281 ± 0.14
UUCUAGCAAUAUUACGUCUG | -2.22 ± 0.12 | -2.49 ± 0.21
UUCUAGCAAUAUUACGUGAG | -0.386 ± 0.06 | -0.345 ± 0.11
UUCUAGCAAUAUUACGUGCG | -1.98 ± 0.14 | -2.14 ± 0.13
UUCUAGCAAUAUUACGUGUU | -3.36 ± 0.17 | -3.2 ± 0.19
UUCUAGCAAUAUUACGUUAG | -3.63 ± 0.29 | -2.67 ± 0.37
UUCUAGCAAUAUUACGUUCA | -0.579 ± 0.16 | -1.11 ± 0.18
UUCUAGCAAUAUUACGUUCG | -2.17 ± 0.14 | -1.29 ± 0.16
UUGAAGCAAUAUUACGAAGC | -3.4 ± 0.3 | -2.48 ± 0.49
UUGAAGCAAUAUUACGCAGA | -0.643 ± 0.13 | 0.228 ± 0.11
UUGAAGCAAUAUUACGCAGG | -1.15 ± 0.092 | -0.283 ± 0.098
UUGAAGCAAUAUUACGCCUC | – | -1.63 ± 0.42
UUGAAGCAAUAUUACGCUGU | -1.96 ± 0.14 | -1.84 ± 0.16
